{
  "source": "patent US20160166638A1",
  "about": "“LACTOFERRIN-OSTEOPONTIN-IRON COMPLEX” (NESTEC S.A., priority 2013, published 2016)",
  "experiment": "Colour change of iron fortified strawberry-banana yoghurt after flash pasteurization (CIELAB colorimetry)",
  "assay_type": "physicochemical",
  "settings": "colour difference vs yoghurt with no iron salts; Jogolino Strawberry/Banana yoghurt, approx. 0.8 mg iron per 100 g; flash pasteurized at 105° C. for 2 minutes",
  "description": "Commercial yoghurt, Nestlé Jogolino™ Strawberry/Banana yoghurt containing 15% banana puree and 10% strawberry puree, was iron fortified by the addition of different iron containing materials to 5 kg yoghurt as reported in the table below. The amounts were chosen to provide approximately 0.8 mg iron per 100 g yoghurt. A 100 g serving of yoghurt with that level of iron would provide 15% of the recommended daily amount of iron for an infant [Official Journal of the European Union, Commission Directive 2006/125/EC].\nFor the lactoferrin-osteopontin-iron complex (Trial B), the powder from Example 1 was added to yoghurt at a level of 28 g per 5 kg yoghurt. The resulting yoghurt composition comprised 5.6 g powder per kg which is 4 g LF-OPN-Fe complex per kg.\nThe yoghurts were flash pasteurized at 105° C. for 2 minutes. Colour measurements were performed in 1×1 cm polystyrene cuvettes using an X-Rite ColorEye 7000A colorimeter. The colorimeter was set up with a D65 light source, 10 degree observer angle and with specular component included. The colour difference between the yoghurt with no iron salts and the iron fortified yoghurt was measured for each iron salt and expressed as ΔEab* using the CIELAB colour scale.",
  "data": [
    {"molecule": "Lactoferrin-Fe: Lactoferrin obtained from Armor proteins, supplied with some iron complexed to it; comparison fortificant (protein, UniProt P24627 20-708, looked up, iron complex, Lactoferrin obtained from Armor proteins, supplied with some iron complexed to it; comparison fortificant) Lactotransferrin: APRKNVRWCTISQPEWFKCRRWQWRMKKLGAPSITCVRRAFALECIRAIAEKKADAVTLDGGMVFEAGRDPYKLRPVAAEIYGTKESPQTHYYAVAVVKKGSNFQLDQLQGRKSCHTGLGRSAGWIIPMGILRPYLSWTESLEPLQGAVAKFFSASCVPCIDRQAYPNLCQLCKGEGENQCACSSREPYFGYSGAFKCLQDGAGDVAFVKETTVFENLPEKADRDQYELLCLNNSRAPVDAFKECHLAQVPSHAVVARSVDGKEDLIWKLLSKAQEKFGKNKSRSFQLFGSPPGQRDLLFKDSALGFLRIPSKVDSALYLGSRYLTTLKNLRETAEEVKARYTRVVWCAVGPEEQKKCQQWSQQSGQNVTCATASTTDDCIVLVLKGEADALNLDGGYIYTAGKCGLVPVLAENRKSSKHSSLDCVLRPTEGYLAVAVVKKANEGLTWNSLKDKKSCHTAVDRTAGWNIPMGLIVNQTGSCAFDEFFSQSCAPGADPKSRLCALCAGDDQGLDKCVPNSKEKYYGYTGAFRCLAEDVGDVAFVKNDTVWENTNGESTADWAKNLNREDFRLLCLDGTRKPVTEAQSCHLAVAPNHAVVSRSDRAAHVKQVLLHQQALFGKNGKNCPDKFCLFKSETKNLLFNDNTECLAKLGGRPTYEEYLGTEYVTAIANLKKCSTSPLLEACAFLTR", "values": [
      {"measurement": "ΔEab*", "value": 5.64}
    ]}
  ]
}
